Test results: publication PMC4709722, “Flavone synthases from Lonicera japonica and L. macranthoides reveal differential flavone accumulation” (Scientific Reports, 2016)

B1: LjFNSII-1.1 (Lonicera japonica; S122A) (protein)
chain: MWIFDLTISFTTLLFLIFTTALLLLLKVFKKNHKLRPPPSPFTLPIIGHLHLLGPLIHQSFHRLSTLYGPLIQLKIGYIPCVVASTPELAKEFLKTHELAFSSRKHSAAIKLLTYDVSFAFAPYGPYWKFIKKTCTFELLGTRNMNHFLPIRTNEIRRFLQVMLEKAKASEGVNVTEELIKLTNNVISQMMFSTRSSGTEGEAEEMRTLVREVTQIFGEFNVSDFIKLCKNIDIGGFKKRSKDIQKRYDALLEKIISERESERARRGKNRETLGEEGGKDFLDMMLDTMEDGKCEVEITRDHIKALVLDFLTAATDTTAIAVEWTLAELISNPEVFDKAREEIDKVVGKHRLVTELDTPNLPYIHAIIKESFRLHPPIPLLIRKSVQDCTVGGYHISANTILFVNIWAIGRNPKYWESPMKFWPERFLESNGPGPVGSMDIKGHHYELLPFGSGRRGCPGMALAMQELPVVLAAMIQCFNWKPVTLDGEELDMSERPGLTAPRAHDLVCVPSARINSFDNF
B2: LjFNSII-1.1 (Lonicera japonica) (protein)
chain: MWIFDLTISFTTLLFLIFTTALLLLLKVFKKNHKLRPPPSPFTLPIIGHLHLLGPLIHQSFHRLSTLYGPLIQLKIGYIPCVVASTPELAKEFLKTHELAFSSRKHSAAIKLLTYDVSFAFSPYGPYWKFIKKTCTFELLGTRNMNHFLPIRTNEIRRFLQVMLEKAKASEGVNVTEELIKLTNNVISQMMFSTRSSGTEGEAEEMRTLVREVTQIFGEFNVSDFIKLCKNIDIGGFKKRSKDIQKRYDALLEKIISERESERARRGKNRETLGEEGGKDFLDMMLDTMEDGKCEVEITRDHIKALVLDFLTAATDTTAIAVEWTLAELISNPEVFDKAREEIDKVVGKHRLVTELDTPNLPYIHAIIKESFRLHPPIPLLIRKSVQDCTVGGYHISANTILFVNIWAIGRNPKYWESPMKFWPERFLESNGPGPVGSMDIKGHHYELLPFGSGRRGCPGMALAMQELPVVLAAMIQCFNWKPVTLDGEELDMSERPGLTAPRAHDLVCVPSARINSFDNF
B3: LjFNSII-2.1 (Lonicera japonica) (protein)
chain: MWIFDLTISFTTLLFLIFTTALLLLLKVFKKNHKLRPPPSPFTLPIIGHLHLLGPLIHQSFHRLSTLYGPLIQLKIGYIPCVVASTPELAKEFLKTHELAFSSRKHSAAIKLLTYDVSFAFSPYGPYWKFIKKTCTFELLGTRNMNHFLPIRTNEIRRFLQVMLEKAKASEGVNVTEELIKLTNNVISQMMFSTRSSGTEGEAEEMRTLVREVTQIFGEFNVSDFIKLCKNIDIGGFKKRSEDIQKRYDALLEKIISERESERARRGKNRETLGEEGGKDFLDMMLDTMEDGKCEVEITRDHIKALVLDFLTAATDTTAIAVEWTLAELISNPEVFDKAREEIDKVVGKHRLVTELDTPNLPYIHAIIKESFRLHPPIPLLIRKSVQDCTVGGYHISANTILFVNIWAIGRNPKYWESPMKFWPERFLESNGPGPVGSMDIKGHHYELLPFGSGRRGCPGMALAMQELPVVLAAMIQCFNWKPVTLDGEELDMSERPGLTAPRAHDLVCVPSARINSFDNF
B4: LmFNSII-1.1 (Lonicera macranthoides; V204M) (protein)
chain: MLIFDLTISFTTLLFLIFTTALLLKVFKKNHKLQPPPSPFTLPIIGHLHLLGPLIHQSFHRLSTLYGPLIQLKIGYIPCVVASTPELAKEFLKTHELAFSSRKHSAAIKLLTYDVSFAFAPYGPYWKFIKKTCTFELLGTRNMNHFLPIRTNEIRRFLQVMLEKAKASEGVNVTEELIKLTNNVISQMMFSTRSSGTEGEAEEMRTLVREVTQIFGEFNVSDFIKLCKNIDIGGFKKRSEDIQKRYDALLEKIISERESERARRGKNRETLGEEGGKDFLDMMLDTMEDGKCEVEITRDHIKALVLDFLTAATDTTAIAVEWTLAELISNPEVFDKAREEIDKVVGKHRLVTELDTPNLPYIHAIIKESFRLHPPIPLVIRKSVQDCTVGGYHISANTILFINIWAIGRNPKYWESPMKFWPERFLESNEPGSVGSTDIKGHHYELLPFGSGRRGCPGMALAMQELPVVLAAMIQCFNWKPVTLDGEELDMSERPGLTAPRAHDLVCVPSARINSFDNF
B5: LmFNSII-1.1 (Lonicera macranthoides) (protein)
chain: MLIFDLTISFTTLLFLIFTTALLLKVFKKNHKLQPPPSPFTLPIIGHLHLLGPLIHQSFHRLSTLYGPLIQLKIGYIPCVVASTPELAKEFLKTHELAFSSRKHSAAIKLLTYDVSFAFAPYGPYWKFIKKTCTFELLGTRNMNHFLPIRTNEIRRFLQVMLEKAKASEGVNVTEELIKLTNNVISQMMFSTRSSGTEGEAEEVRTLVREVTQIFGEFNVSDFIKLCKNIDIGGFKKRSEDIQKRYDALLEKIISERESERARRGKNRETLGEEGGKDFLDMMLDTMEDGKCEVEITRDHIKALVLDFLTAATDTTAIAVEWTLAELISNPEVFDKAREEIDKVVGKHRLVTELDTPNLPYIHAIIKESFRLHPPIPLVIRKSVQDCTVGGYHISANTILFINIWAIGRNPKYWESPMKFWPERFLESNEPGSVGSTDIKGHHYELLPFGSGRRGCPGMALAMQELPVVLAAMIQCFNWKPVTLDGEELDMSERPGLTAPRAHDLVCVPSARINSFDNF

What was measured:
Assay in all cases: cells, lysate or membranes
[1] = substrate: O=C1C[C@@H](c2ccc(O)c(O)c2)Oc2cc(O)cc(O)c21; conditions: NADPH, potassium phosphate, product luteolin
[2] = substrate: O=C1C[C@@H](c2ccc(O)cc2)Oc2cc(O)cc(O)c21; conditions: apparent Km; NADPH, potassium phosphate, optimized conditions (about pH 7.5, 37 °C); product apigenin; pH 7.5; 37.0 °C
[3] = substrate: O=C1C[C@@H](c2ccc(O)cc2)Oc2cc(O)ccc21; conditions: apparent Km; NADPH, potassium phosphate, optimized conditions (about pH 7.5, 37 °C); product 7,4'-dihydroxyflavone; pH 7.5; 37.0 °C
[4] = apparent Km, optimized conditions (about pH 7.5, 37 °C), pH 7.5, 37.0 °C

Row | Protein | Km ([1]; optimized conditions) | kcat ([1]; optimized conditions) | Km [2] | Vmax [2] | kcat [2] | kcat/Km [2] | Km [1, 4] | Vmax [1, 4] | kcat [1, 4] | kcat/Km [1, 4] | Km [3] | Vmax [3] | kcat [3] | kcat/Km [3]
1 | B1 | 10.53 ± 1.18 µM | 6.08 ± 0.5 s⁻¹ |  |  |  |  |  |  |  |  |  |  |  | 
2 | B2 |  |  | 9.93 (0.64) μM | 0.166 µM/min | 1.59 s⁻¹ | 160000 M⁻¹ s⁻¹ | 5.07 (0.05) μM | 0.267 µM/min | 2.56 s⁻¹ | 504000 M⁻¹ s⁻¹ | 6.48 (0.26) μM | 0.461 µM/min | 4.41 s⁻¹ | 681000 M⁻¹ s⁻¹
3 | B3 |  |  | 1.63 (0.06) μM | 0.0288 µM/min | 0.28 s⁻¹ | 170000 M⁻¹ s⁻¹ | 2.05 (0.04) μM | 0.0984 µM/min | 0.94 s⁻¹ | 460000 M⁻¹ s⁻¹ | 2.56 (0.03) μM | 0.124 µM/min | 1.18 s⁻¹ | 462000 M⁻¹ s⁻¹
4 | B4 | 8.47 ± 0.52 µM | 5.08 ± 0.30 s⁻¹ |  |  |  |  |  |  |  |  |  |  |  | 
5 | B5 |  |  | 1.63 (0.12) μM | 0.021 µM/min | 0.2 s⁻¹ | 122000 M⁻¹ s⁻¹ | 3.09 (0.17) μM | 0.0462 µM/min | 0.44 s⁻¹ | 142000 M⁻¹ s⁻¹ | 2.38 (0.07) μM | 0.0738 µM/min | 0.7 s⁻¹ | 295000 M⁻¹ s⁻¹
